This note sets out measurements from IntAct's records for PubMed 19759014.

B1: Zinc transporter 6 (Homo sapiens), Q6NXT4 (parent)
chain: MGTIHLFRKPQRSFFGKLLREFRLVAADRRSWKILLFGVINLICTGFLLMWCSSTNSIALTAYTYLTIFDLFSLMTCLISYWVTLRKPSPVYSFGFERLEVLAVFASTVLAQLGALFILKESAERFLEQPEIHTGRLLVGTFVALCFNLFTMLSIRNKPFAYVSEAASTSWLQEHVADLSRSLCGIIPGLSSIFLPRMNPFVLIDLAGAFALCITYMLIEINNYFAVDTASAIAIALMTFGTMYPMSVYSGKVLLQTTPPHVIGQLDKLIREVSTLDGVLEVRNEHFWTLGFGSLAGSVHVRIRRDANEQMVLAHVTNRLYTLVSTLTVQIFKDDWIRPALLSGPVAANVLNFSDHHVIPMPLLKGTDDLNPVTSTPAKPSSPPPEFSFNTPGKNVNPVILLNTQTRPYGFGLNHGHTPYSSMLNQGLGVPGIGATQGLRTGFTNIPSRYGTNNRIGQPRP

The test covers variants of B1. The conditions noted are these: with znt5_human SLC30A5, Q8TAD4.
znt5_human SLC30A5, Q8TAD4, sequence (Q8TAD4 whole entry): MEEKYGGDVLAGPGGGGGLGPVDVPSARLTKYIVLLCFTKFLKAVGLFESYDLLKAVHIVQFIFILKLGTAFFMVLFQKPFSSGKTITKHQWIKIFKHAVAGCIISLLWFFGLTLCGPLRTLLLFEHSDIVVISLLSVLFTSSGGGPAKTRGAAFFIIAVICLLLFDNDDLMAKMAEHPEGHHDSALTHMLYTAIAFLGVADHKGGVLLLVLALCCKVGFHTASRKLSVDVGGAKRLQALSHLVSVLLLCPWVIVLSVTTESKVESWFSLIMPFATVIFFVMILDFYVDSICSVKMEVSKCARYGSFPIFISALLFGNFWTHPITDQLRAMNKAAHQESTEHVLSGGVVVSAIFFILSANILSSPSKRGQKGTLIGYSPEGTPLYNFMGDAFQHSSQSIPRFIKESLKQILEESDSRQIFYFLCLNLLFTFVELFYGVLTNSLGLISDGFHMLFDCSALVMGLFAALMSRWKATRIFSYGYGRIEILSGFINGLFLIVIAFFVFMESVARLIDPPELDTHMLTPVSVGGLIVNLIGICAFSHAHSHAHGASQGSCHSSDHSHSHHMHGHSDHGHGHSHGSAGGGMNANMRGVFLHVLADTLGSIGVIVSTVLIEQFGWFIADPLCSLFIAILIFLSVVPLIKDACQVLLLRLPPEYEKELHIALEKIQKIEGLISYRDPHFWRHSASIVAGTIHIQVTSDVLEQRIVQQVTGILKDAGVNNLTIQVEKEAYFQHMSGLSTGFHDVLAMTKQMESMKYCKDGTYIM
In the case of L66H;F201H, the “effect of a mutation on the interaction” value is “with no effect”.

For the variant D70A;D205A, the “effect of a mutation on the interaction” value was “with no effect”.
